Laboratory results from the Immune Epitope Database (IEDB).

How the values were obtained:
[1] = molecular target: HLA-B*40:01; experiment: IEDB peptide-MHC binding, purified MHC/competitive/radioactivity; filed as Kd, often an IC50 or EC50 that approximates it; ≥ and ≤ were set here for values at or beyond the usual limits of such assays; conditions: source organism: Dengue virus 3 Martinique/1243/1999
[2] = molecular target: HLA-B*44:02; experiment: as above
[3] = molecular target: HLA-B*44:03; experiment: as above
[4] = molecular target: HLA-A*01:01; experiment: as above
[5] = molecular target: HLA-A*03:01; experiment: as above
[6] = molecular target: HLA-A*11:01; experiment: as above
[7] = molecular target: HLA-A*23:01; experiment: as above
[8] = molecular target: HLA-A*24:02; experiment: as above
[9] = molecular target: HLA-A*26:01; experiment: as above
[10] = molecular target: HLA-A*29:02; experiment: as above
[11] = molecular target: HLA-A*30:02; experiment: as above
[12] = molecular target: HLA-A*31:01; experiment: as above
[13] = molecular target: HLA-A*33:01; experiment: as above
[14] = molecular target: HLA-A*68:01; experiment: as above
[15] = molecular target: HLA-B*08:01; experiment: as above
[16] = molecular target: HLA-B*57:01; experiment: IEDB peptide-MHC binding, purified MHC/direct/fluorescence; filed as Kd, often an IC50 or EC50 that approximates it; ≥ and ≤ were set here for values at or beyond the usual limits of such assays; conditions: source organism: Bacillus anthracis str. A0488
[17] = molecular target: HLA-B*58:01; experiment: as above; conditions: source organism: Bacillus anthracis str. A0488
[18] = source organism: Dengue virus 3 Martinique/1243/1999
[19] = source organism: SARS coronavirus Tor2
[20] = source organism: Mammarenavirus lassaense
[21] = source organism: Vaccinia virus WR
[22] = source organism: Mammarenavirus tacaribeense
[23] = source organism: Mammarenavirus guanaritoense
[24] = source organism: Mammarenavirus juninense
[25] = source organism: Dengue virus 3 Singapore/8120/1995
[26] = source organism: Vaccinia virus Copenhagen
[27] = source organism: Mammarenavirus machupoense
[28] = source organism: Dengue virus 2 Jamaica/1409/1983
[29] = source organism: Dengue virus 1 Brazil/97-11/1997
[30] = source organism: Mammarenavirus brazilense

AETQNSSFII
Kd [1]: 23.1 nM | Kd [2, 18]: 63.8 nM | Kd [3, 18]: 34.7 nM

AMDEFIQRY
Kd [4, 19]: 64.4 nM | Kd [5, 19]: 1630 nM | Kd [6, 19]: 3230 nM | Kd [7, 19]: ≥ 20100 nM | Kd [8, 19]: 7900 nM | Kd [9, 19]: ≥ 84100 nM | Kd [10, 19]: 896 nM | Kd [11, 19]: 1390 nM | Kd [12, 19]: ≥ 77900 nM | Kd [13, 19]: ≥ 77700 nM | Kd [14, 19]: ≥ 77700 nM

CFISVNDRLV
Kd [4, 20]: 18100 nM | Kd [7, 20]: 358 nM | Kd [8, 20]: 11400 nM | Kd [9, 20]: ≥ 69700 nM | Kd [10, 20]: 5260 nM | Kd [11, 20]: 573 nM

CPRRYLHRL
Kd [15, 21]: 2.66 nM

CWFADKNLI
Kd [7, 22]: 275 nM | Kd [8, 22]: 510 nM | Kd [10, 22]: 3150 nM

CYSKSLRDLV
Kd [4, 23]: 12600 nM | Kd [7, 23]: 3070 nM | Kd [8, 23]: 529 nM | Kd [9, 23]: ≥ 69700 nM | Kd [10, 23]: ≥ 43000 nM | Kd [11, 23]: ≥ 69700 nM

DWVVERVRWL
Kd [7, 24]: ≥ 51900 nM | Kd [8, 24]: ≥ 48700 nM | Kd [10, 24]: ≥ 71400 nM

EEEMFKKRNL
Kd [1]: ≥ 64300 nM | Kd [2, 18]: 90 nM | Kd [3, 18]: 815 nM

EEHSSTWHY
Kd [2, 25]: 17.6 nM | Kd [3, 25]: 41 nM

ENMLRSMPV
Kd [15, 21]: 0.213 nM

ESMASLKSLY
Kd [5, 21]: 7.63 nM | Kd [6, 21]: 116 nM | Kd [10, 21]: ≥ 71400 nM | Kd [12, 21]: 3190 nM | Kd [13, 21]: 15900 nM | Kd [14, 21]: 4.63 nM

EYISDAFSL
Kd [4, 19]: ≥ 37600 nM | Kd [7, 19]: ≥ 64600 nM | Kd [8, 19]: ≥ 91800 nM | Kd [9, 19]: ≥ 77900 nM | Kd [10, 19]: ≥ 88200 nM | Kd [11, 19]: ≥ 81100 nM

EYKLQQGTF
Kd [4, 19]: ≥ 78100 nM | Kd [7, 19]: ≥ 35100 nM | Kd [8, 19]: 11300 nM | Kd [9, 19]: ≥ 77900 nM | Kd [10, 19]: ≥ 31600 nM | Kd [11, 19]: ≥ 78900 nM

EYQKTKLNDW
Kd [7, 18]: 10800 nM | Kd [8, 18]: 10300 nM

FGDSEEPVTY
Kd [4, 26]: 834 nM | Kd [7, 26]: 1490 nM | Kd [8, 26]: ≥ 70300 nM | Kd [9, 26]: ≥ 69700 nM | Kd [10, 26]: 13000 nM | Kd [11, 26]: 13100 nM

FNAPALQEAY
Kd [4, 19]: 284 nM | Kd [7, 19]: ≥ 70000 nM | Kd [8, 19]: ≥ 70300 nM | Kd [9, 19]: 526 nM | Kd [10, 19]: 26.1 nM | Kd [11, 19]: 336 nM

GWHDWQQVPF
Kd [7, 18]: 414 nM | Kd [8, 18]: 118 nM

HCALLDCIMY
Kd [4, 27]: 232 nM | Kd [7, 27]: ≥ 70000 nM | Kd [8, 27]: ≥ 70300 nM | Kd [9, 27]: ≥ 69700 nM | Kd [10, 27]: 2180 nM | Kd [11, 27]: 1420 nM

HEEPIPMSTY
Kd [2, 28]: 397 nM | Kd [3, 28]: 251 nM

HVQRIETWIL
Kd [15, 28]: 1730 nM

IARQYEQEM
Kd [16]: 515 nM | Kd [17]: 15000 nM

IIVNNQESNK
Kd [5, 21]: 1130 nM | Kd [6, 21]: 4400 nM | Kd [10, 21]: ≥ 68200 nM | Kd [12, 21]: ≥ 29900 nM | Kd [13, 21]: ≥ 36200 nM | Kd [14, 21]: 3230 nM

ILNRRRRTA
Kd [15, 28]: 147 nM

IMDLEKRHVL
Kd [15, 28]: 42.1 nM

INKRKKTSL
Kd [15, 18]: 18.3 nM

IRFPRFTRI
Kd [15, 21]: 1600 nM

ITQKGIIFIL
Kd [15, 29]: 577 nM

IYRILQRGLL
Kd [15, 29]: 2570 nM

KWKSRLNAL
Kd [15, 28]: 65.6 nM

LFLAFVVFLL
Kd [4, 19]: 537 nM | Kd [7, 19]: 846 nM | Kd [8, 19]: 11700 nM | Kd [9, 19]: 251 nM | Kd [10, 19]: 793 nM | Kd [11, 19]: 2000 nM

LFQLIFFLTL
Kd [7, 30]: 9190 nM | Kd [8, 30]: ≥ 53900 nM | Kd [10, 30]: 673 nM

LIAIAVASGL
Kd ([15]; source organism: Dengue virus 4 Philippines/H241/1956): 11700 nM
